Common to all, as to test: fluorescence polarisation; increasing amounts of SIN1 protein titrated to 1 µM mGppNHp-bound GTPase; 21°C; 30 mM Tris/HCl pH 7.5, 150 mM NaCl, 5 mM MgCl2, 3 mM dithiothreitol; quadratic ligand binding equation
Holding throughout (settings): both partners purified
In general terms: Polarisation of emitted light reports the rotation of a fluorescent probe.

In assay [1] the target is T1, NRAS ( (the printed accession is a …, UniProt P01111 1-189)).
T1 construct: NRAS, full length gene; Loaded with mant-GppNHp for fluorescence polarisation

The target of a further assay is T2, RRAS ( (the printed accession is a …, UniProt P10301 1-218)).
T2 construct: RRAS (RRAS1), full length gene; Loaded with mant-GppNHp for fluorescence polarisation; also called RRAS1
T2 sequence (looked up): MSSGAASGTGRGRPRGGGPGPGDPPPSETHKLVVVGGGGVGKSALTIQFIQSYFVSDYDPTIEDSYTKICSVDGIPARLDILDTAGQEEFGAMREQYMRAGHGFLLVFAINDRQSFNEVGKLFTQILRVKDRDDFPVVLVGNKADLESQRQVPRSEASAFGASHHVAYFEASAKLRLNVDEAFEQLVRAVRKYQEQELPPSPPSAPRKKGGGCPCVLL

The target of another assay is T3, RALA ( (the printed accession is a …, UniProt P11233 1-206)).
T3 construct: RALA, full length gene; Loaded with mant-GppNHp for fluorescence polarisation
T3 sequence (looked up): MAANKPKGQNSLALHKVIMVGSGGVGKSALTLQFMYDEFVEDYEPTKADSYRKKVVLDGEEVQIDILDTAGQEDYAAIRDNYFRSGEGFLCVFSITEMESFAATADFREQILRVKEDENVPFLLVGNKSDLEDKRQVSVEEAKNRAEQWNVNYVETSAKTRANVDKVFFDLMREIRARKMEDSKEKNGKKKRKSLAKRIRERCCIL

For assay [2], the target named is T4, KRAS4A ( (the printed accession is a …, UniProt P01116-1 1-189)).
T4 construct: KRAS isoform 4A, full length gene; Loaded with mant-GppNHp for fluorescence polarisation; A farnesylated KRAS4A from insect cells was used only in liposome flotation

Assay [3] has as its target T5, RIT1 ( (the printed accession is a …, UniProt Q92963 1-219)).
T5 construct: RIT1, full length gene; Loaded with mant-GppNHp for fluorescence polarisation

Another assay addresses T6, ERAS ( (the printed accession is a …, UniProt Q7Z444 1-233)).
T6 construct: ERAS, full length gene; Loaded with mant-GppNHp for fluorescence polarisation
T6 sequence (looked up): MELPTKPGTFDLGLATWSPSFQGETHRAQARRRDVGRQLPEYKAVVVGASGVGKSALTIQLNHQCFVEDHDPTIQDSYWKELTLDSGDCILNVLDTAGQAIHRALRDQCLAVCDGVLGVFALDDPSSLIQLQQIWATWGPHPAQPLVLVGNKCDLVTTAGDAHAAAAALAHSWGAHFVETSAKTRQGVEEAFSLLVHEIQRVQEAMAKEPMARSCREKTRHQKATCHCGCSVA

In the next assay the target is T7, RHOA ( (the printed accession is a …, UniProt P61586 1-193)).
T7 construct: RHOA, full length gene; Loaded with mant-GppNHp for fluorescence polarisation

The target in the next assay is T8, TC21 ( (the printed accession is a …, UniProt P62070 1-204)).
T8 construct: RRAS2 (TC21), full length gene; Loaded with mant-GppNHp for fluorescence polarisation; also called RRAS2
T8 sequence (looked up): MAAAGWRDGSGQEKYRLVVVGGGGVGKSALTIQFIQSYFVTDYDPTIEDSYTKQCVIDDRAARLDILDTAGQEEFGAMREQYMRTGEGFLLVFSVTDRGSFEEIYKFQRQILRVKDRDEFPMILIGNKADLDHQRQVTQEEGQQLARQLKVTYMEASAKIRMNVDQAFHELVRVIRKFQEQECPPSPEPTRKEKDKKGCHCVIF

In the next assay the target is T9, RHEB ( (the printed accession is a …, UniProt Q15382 1-184)).
T9 construct: RHEB, full length gene; Loaded with mant-GppNHp for fluorescence polarisation

The target in a further assay is T10, RAP2A ( (the printed accession is a …, UniProt P10114 1-183)).
T10 construct: RAP2A, full length gene; Loaded with mant-GppNHp for fluorescence polarisation
T10 sequence (looked up): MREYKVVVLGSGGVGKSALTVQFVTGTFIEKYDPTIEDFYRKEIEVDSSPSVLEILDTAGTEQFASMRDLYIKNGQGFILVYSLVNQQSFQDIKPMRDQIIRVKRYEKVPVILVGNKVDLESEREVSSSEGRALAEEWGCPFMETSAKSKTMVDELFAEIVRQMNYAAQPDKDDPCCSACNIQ

A further assay deals with T11, KRAS4B ( (the printed accession is a …, UniProt P01116-2 1-188)).
T11 construct: KRAS isoform 4B, full length gene; Loaded with mant-GppNHp for fluorescence polarisation

Assay [4] has as its target T4, KRAS4A. The source holds these as a separate data set.
In assay [5] the target is T5, RIT1. The source holds these as a separate data set.
Assay [6] addresses T1, NRAS. This is another data set of the same source.
Assay [7] has as its target T4, KRAS4A. The source holds these as a separate data set.
The next assay addresses T12, HRAS ( (the printed accession is a …, UniProt P01112 1-189)).
T12 construct: HRAS, full length gene; Loaded with mant-GppNHp (or mant-GDP) for fluorescence polarisation; also called HRAS•mGppNHp; HRAS•mGDP

This passage reports Kd results from paper PMC9583166 (Frontiers in Cell and Developmental Biology, 2022).

Positions count from the first letter of the chain named. Numbers in names are those of the source.

T12 sequence (P01112 whole entry): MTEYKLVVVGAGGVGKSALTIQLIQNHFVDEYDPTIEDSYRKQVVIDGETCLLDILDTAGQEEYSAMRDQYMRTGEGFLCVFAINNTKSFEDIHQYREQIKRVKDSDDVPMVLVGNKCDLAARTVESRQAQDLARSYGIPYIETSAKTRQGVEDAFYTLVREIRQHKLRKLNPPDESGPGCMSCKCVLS
T1 sequence (P01111 whole entry): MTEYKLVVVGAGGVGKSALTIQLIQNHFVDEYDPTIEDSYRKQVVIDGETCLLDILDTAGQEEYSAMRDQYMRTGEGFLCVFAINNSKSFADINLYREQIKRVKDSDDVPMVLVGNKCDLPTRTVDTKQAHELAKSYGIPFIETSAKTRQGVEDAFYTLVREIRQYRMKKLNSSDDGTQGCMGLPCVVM
T5 sequence (Q92963 whole entry): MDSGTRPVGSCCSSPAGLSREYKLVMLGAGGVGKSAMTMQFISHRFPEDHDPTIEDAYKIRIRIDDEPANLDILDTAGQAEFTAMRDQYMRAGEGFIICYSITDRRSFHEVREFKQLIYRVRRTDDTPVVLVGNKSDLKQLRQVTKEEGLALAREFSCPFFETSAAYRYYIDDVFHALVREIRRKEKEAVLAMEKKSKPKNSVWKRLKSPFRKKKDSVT
T7 sequence (P61586 whole entry): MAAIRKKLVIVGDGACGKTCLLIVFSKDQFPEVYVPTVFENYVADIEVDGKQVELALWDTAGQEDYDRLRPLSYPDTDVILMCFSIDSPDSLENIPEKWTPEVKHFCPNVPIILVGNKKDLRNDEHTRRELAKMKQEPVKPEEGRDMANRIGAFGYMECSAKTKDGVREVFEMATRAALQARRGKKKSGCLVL
T9 sequence (Q15382 whole entry): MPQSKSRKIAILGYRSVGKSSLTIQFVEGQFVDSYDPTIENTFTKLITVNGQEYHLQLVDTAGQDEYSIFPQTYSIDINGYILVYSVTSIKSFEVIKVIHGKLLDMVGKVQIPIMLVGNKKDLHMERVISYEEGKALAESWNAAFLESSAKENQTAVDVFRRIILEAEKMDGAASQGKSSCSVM

B1: SIN1-RBD (domain or fragment, UniProt Q9BPZ7 266-373, looked up)
chain: EKYSSPGLTSKESLFVRINAAHGFSLIQVDNTKVTMKEILLKAVKRRKGSQKVSGPQYRLEKQSEPNVAVDLDSTLESQSAWEFCLVRENSSRADGVFEEDSQIDIAT
notes: numbers count on isoform 1 (full length); As used in fluorescence polarisation; Limits: 266-373 in the methods, 279-353 in the results; also called SIN1-RBD^WT
For B1, the Kd in the assay with NRAS [1] is 31 µM; with RRAS, 123 µM; with RALA, 331 µM; in the assay with KRAS4A [2], 34 µM; with RIT1 [3], 123 µM; with ERAS, 171 µM. Moreover, the Kd in the assay with RHOA is 535 µM; in the assay with TC21, 878 µM; with RHEB, 358 µM; with RAP2A it was 483 µM; with KRAS4B, 33 µM; with KRAS4A [4], 35 µM. Further, the dissociation constant (Kd) with RIT1 [5] is 112 µM.

B2: SIN1-RBD^K307D (domain or fragment, UniProt Q9BPZ7 266-373, looked up)
chain: B1 chain with K42D
notes: numbers count on isoform 1 (full length); also called SIN-RBD^K307D; SIN1^K307D
Take B2: the Kd is 166 µM with NRAS [6], 256 µM with KRAS4A [7] and 324 µM with HRAS.

B3: SIN1-RBD^RR311-312EE (domain or fragment, UniProt Q9BPZ7 266-373, looked up)
chain: B1 chain with R46E, R47E
notes: numbers count on isoform 1 (full length); also called SIN-RBD^RR311,312EE; SIN1^RR311-312EE
For the molecule B3, the Kd was found to be 952 µM with KRAS4A [7] and 461 µM with HRAS.

B4: SIN1-RBD^FSL289-291REE (domain or fragment, UniProt Q9BPZ7 266-373, looked up)
chain: B1 chain with F24R, S25E, L26E
notes: numbers count on isoform 1 (full length); also called SIN-RBD^FSL289-291REE; SIN1^FSL289-291REE
Take B4: the dissociation constant Kd in the assay with KRAS4A [7] came to 654 µM.

As usually defined, the Kd is the concentration at which binding is half-saturated. Low values mean higher affinity, high ones lower affinity.
